Patent publication US20250304687A1 (LTZ THERAPEUTICS, published 2025)

Molecular target: T1, human CD79b recombinant protein (human, UniProt P40259 29-159, limits assumed)
T1 construct: Coated on ELISA plates at 1 ug/ml
T1 sequence (looked up): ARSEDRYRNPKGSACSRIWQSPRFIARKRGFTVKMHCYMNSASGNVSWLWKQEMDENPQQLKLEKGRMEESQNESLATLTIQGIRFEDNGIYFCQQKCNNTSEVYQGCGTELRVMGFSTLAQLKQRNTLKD
Assay: ELISA, coated human CD79b recombinant protein
Protocol: The binding affinities of CD79b/CD3 bispecific antibodies to human CD79b recombinant protein were tested by ELISA. 1 μg/ml (in PBS buffer) of human CD79b recombinant protein was coated on ELISA plates overnight. ELISA plates were washed and blocked with blocking buffer (PBS+1% BSA) and then incubated with serial dilutions of primary CD79b/CD3 bispecific antibodies.

B1: 23D8/TRX4 (bispecific antibody, human IgG1, kappa, N297G)
light: AYDMTQTPASVEVAVGGTVTIKCQASQSISDNLSWYQQKPGQPPKLLIYDASDLASGVPSRFSGSGSGTEFTLTISDLEPADAATYYCQQDWISSNVDNTFGGGTEVVVKRTVAAPSVFIFPPSDEQLKSGTASVVCLLNNFYPREAKVQWKVDNALQSGNSQESVTEQDSKDSTYSLSSTLTLSKADYEKHKVYACEVTHQGLSSPVTKSFNRGEC
heavy: QSLEESGGGLVTPGGTLTLTCTVSGLSLSSNAINWVRQAPGKGLEWIGMIYSGGRIEYASWAKGRFTISKTSTTVDLKITSPTTEDTATYFCAKGMSPSAHSSDIWGPGTLVTVSASTKGPSVFPLAPSSKSTSGGTAALGCLVKDYFPEPVTVSWSSGALTSGVHTFPAVLQSSGLYSLSSVVTVPSSSLGTQTYICNVNHKPSNTKVDKKVEPKSCDKTHTCPPCPAPELLGGPSVFLFPPKPKDTLMISRTPEVTCVVVDVSHEDPEVKFNWYVDGVEVHNAKTKPREEQYGSTYRVVSVLTVLHQDWLNGKEYKCKVSNKALPAPIEKTISKAKGQPREPQVYTLPPSRDELTKNQVSLSCAVKGFYPSDIAVEWESNGQPENNYKTTPPVLDSDGSFFLVSKLTVDKSRWQQGNVFSCSVMHEALHNRFTQKSLSLSPGK
chain: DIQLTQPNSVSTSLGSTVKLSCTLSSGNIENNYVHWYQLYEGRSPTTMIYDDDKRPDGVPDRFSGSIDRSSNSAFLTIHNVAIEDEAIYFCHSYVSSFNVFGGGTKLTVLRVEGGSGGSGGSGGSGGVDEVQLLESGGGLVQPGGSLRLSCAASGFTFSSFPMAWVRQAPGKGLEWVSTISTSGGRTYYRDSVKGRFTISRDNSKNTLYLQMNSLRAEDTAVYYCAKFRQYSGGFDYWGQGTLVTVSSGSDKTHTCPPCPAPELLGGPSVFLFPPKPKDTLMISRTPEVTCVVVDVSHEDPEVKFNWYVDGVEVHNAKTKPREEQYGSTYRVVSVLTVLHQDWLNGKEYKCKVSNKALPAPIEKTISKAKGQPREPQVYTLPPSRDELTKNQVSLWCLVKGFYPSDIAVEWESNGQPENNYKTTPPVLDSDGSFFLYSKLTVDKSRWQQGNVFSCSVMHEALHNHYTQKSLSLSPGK
notes: Knob-into-hole format: anti-CD79b Fab arm (rabbit 23D8 variable regions on human IgG1/kappa) and anti-CD3 TRX4 (otelixizumab) scFv-Fc
  binding result: binds

B2: 23D8/38E4 (bispecific antibody, human IgG1, kappa, N297G)
light: B1 light
heavy: B1 heavy
chain: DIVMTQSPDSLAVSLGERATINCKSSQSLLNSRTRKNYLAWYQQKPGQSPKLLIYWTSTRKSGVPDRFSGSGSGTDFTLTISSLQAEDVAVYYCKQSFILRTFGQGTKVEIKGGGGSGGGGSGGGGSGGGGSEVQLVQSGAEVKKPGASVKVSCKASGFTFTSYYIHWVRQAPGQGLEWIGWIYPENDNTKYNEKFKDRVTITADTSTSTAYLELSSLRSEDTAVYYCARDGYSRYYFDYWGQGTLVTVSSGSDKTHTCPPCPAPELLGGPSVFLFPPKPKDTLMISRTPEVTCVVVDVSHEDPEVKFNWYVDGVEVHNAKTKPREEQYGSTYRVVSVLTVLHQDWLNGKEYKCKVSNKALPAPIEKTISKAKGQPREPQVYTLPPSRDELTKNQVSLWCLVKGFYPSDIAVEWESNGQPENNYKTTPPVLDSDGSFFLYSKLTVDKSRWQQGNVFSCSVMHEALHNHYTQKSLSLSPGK
notes: Knob-into-hole format: anti-CD79b 23D8 Fab arm and anti-CD3 38E4 scFv-Fc; also called CD79b/CD3 bispecific antibody 23D8/38E4
  binding result: binds

B3: 23D8/msnCD3 (bispecific antibody, human IgG1, kappa, N297G)
light: B1 light
heavy: B1 heavy
chain: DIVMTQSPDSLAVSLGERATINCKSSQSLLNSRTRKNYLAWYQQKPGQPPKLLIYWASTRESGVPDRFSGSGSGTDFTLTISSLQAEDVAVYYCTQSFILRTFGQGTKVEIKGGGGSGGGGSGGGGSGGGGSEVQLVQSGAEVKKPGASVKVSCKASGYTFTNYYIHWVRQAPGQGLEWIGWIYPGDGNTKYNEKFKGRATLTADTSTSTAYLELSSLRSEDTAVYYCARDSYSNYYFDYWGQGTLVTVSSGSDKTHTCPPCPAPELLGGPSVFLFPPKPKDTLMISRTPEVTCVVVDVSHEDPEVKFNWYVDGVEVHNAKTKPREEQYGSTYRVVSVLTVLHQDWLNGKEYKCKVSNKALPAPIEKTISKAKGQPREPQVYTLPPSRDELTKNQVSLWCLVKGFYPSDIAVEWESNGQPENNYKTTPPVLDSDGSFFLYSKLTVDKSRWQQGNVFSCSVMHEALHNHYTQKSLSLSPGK
notes: also called CD79b/CD3 bispecific antibody 23D8/msnCD3
  binding result: binds

B4: Pola/msnCD3 (bispecific antibody, human IgG1, kappa, N297G)
light: DIQLTQSPSSLSASVGDRVTITCKASQSVDYEGDSFLNWYQQKPGKAPKLLIYAASNLESGVPSRFSGSGSGTDFTLTISSLQPEDFATYYCQQSNEDPLTFGQGTKVEIKRTVAAPSVFIFPPSDEQLKSGTASVVCLLNNFYPREAKVQWKVDNALQSGNSQESVTEQDSKDSTYSLSSTLTLSKADYEKHKVYACEVTHQGLSSPVTKSFNRGEC
heavy: EVQLVESGGGLVQPGGSLRLSCAASGYTFSSYWIEWVRQAPGKGLEWIGEILPGGGDTNYNEIFKGRATFSADTSKNTAYLQMNSLRAEDTAVYYCTRRVPIRLDYWGQGTLVTVSSASTKGPSVFPLAPSSKSTSGGTAALGCLVKDYFPEPVTVSWSSGALTSGVHTFPAVLQSSGLYSLSSVVTVPSSSLGTQTYICNVNHKPSNTKVDKKVEPKSCDKTHTCPPCPAPELLGGPSVFLFPPKPKDTLMISRTPEVTCVVVDVSHEDPEVKFNWYVDGVEVHNAKTKPREEQYGSTYRVVSVLTVLHQDWLNGKEYKCKVSNKALPAPIEKTISKAKGQPREPQVYTLPPSRDELTKNQVSLSCAVKGFYPSDIAVEWESNGQPENNYKTTPPVLDSDGSFFLVSKLTVDKSRWQQGNVFSCSVMHEALHNRFTQKSLSLSPGK
chain: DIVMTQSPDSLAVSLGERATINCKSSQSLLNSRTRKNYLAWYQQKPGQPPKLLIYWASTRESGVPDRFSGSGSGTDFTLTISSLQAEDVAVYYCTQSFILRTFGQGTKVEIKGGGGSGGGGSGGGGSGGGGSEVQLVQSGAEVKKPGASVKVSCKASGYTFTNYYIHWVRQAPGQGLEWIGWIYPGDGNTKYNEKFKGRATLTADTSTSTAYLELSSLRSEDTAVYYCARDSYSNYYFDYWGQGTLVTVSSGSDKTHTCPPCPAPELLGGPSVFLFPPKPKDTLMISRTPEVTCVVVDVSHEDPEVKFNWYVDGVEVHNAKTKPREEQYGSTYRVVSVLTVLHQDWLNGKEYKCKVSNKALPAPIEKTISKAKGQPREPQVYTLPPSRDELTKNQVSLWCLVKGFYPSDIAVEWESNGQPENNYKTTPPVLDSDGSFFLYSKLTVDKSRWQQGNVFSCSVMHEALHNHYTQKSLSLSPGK
notes: also called CD79b/CD3 bispecific antibody Pola/msnCD3
  binding result: binds
